{
  "source": "paper PMC8210614",
  "about": "“IRDye800CW labeled uPAR-targeting peptide for fluorescence-guided glioblastoma surgery: Preclinical studies in orthotopic xenografts” (Theranostics, 2021)",
  "molecules": {"B1": {"name": "AE105 (peptide)", "chain": "DAFSRYLWS", "modifications": "9-mer; residue 2 Cha (cyclohexylalanine), residue 4 D-Ser, residue 5 D-Arg; C-terminal free acid. Sequence not printed: taken from the core of the related antagonist peptide AE147 in 1YWH, with D-Arg"}},
  "key": {"[1]": {"assay": "not given", "remark": "listed apart in the source"}, "[2]": {"assay": "not given", "remark": "listed apart in the source"}, "[3]": {"assay": "not given", "remark": "listed apart in the source"}, "orthotopic PDX GBM": {"tested_on": "orthotopic PDX GBM", "type": "in vivo, nude mice", "conditions": "IRDye800CW-AE344 6 nmol i.v. 3 h before surgery; 5-ALA 0.25 mg/g oral 4-5 h before; NIR surgery followed 5-ALA surgery; 2 animals each"}, "glioma": {"tested_on": "glioma", "conditions": "cited from earlier work", "description": "Gliolan®, the brand name of 5-ALA, was approved for clinical use for GBM resection in Europe in 2007 and by the FDA in 2017. After oral administration, it is metabolized inside the tumor cells into protoporphyrin IX that is fluorescent with an emission peak at 635 nm. […] Further, the frequency of the most common early severe adverse events (hemiparesis, aphasia, convulsions, and epidural hematoma) was 11 of 139 pati ... || GBM as a high-grade glioma is characterized by alterations of the normal brain vasculature resulting in a disrupted leaky BBB [47] manifested on MRI with tumor contrast-enhancement. However, the highly invasive nature of GBM causes single cell invasion into otherwise healthy tissue and proliferation of cells in areas outside of the disrupted BBB region, usually in areas not showing contrast-enhancement on MRI [48]. In contrast, the vasculature and BBB function in low-grade gliomas remains virtually unaltered and intact with normal function. As a consequence, the BBB in both high-grade and ..."}, "[4]": {"assay": "Ex vivo plasma stability, murine plasma", "type": "in vitro ADME", "conditions": "mouse, 37 °C in dark, 2.4 nmol in 1,600 ul plasma, acetonitrile precipitation, HPLC fluorescence detection ex 774/em 798 nm, normalized to 0 h, read-out: intact probe (normalized AUC on HPLC)", "protocol": "(§1) For plasma stability 1,600 ul human and murine plasma were separately incubated with 2.4 nmol IRDye800CW-AE344 in 10 ul PBS at 37 °C in dark. 200 ul samples were collected at 0, 0.5, 1, 2, 3, 6, 12 and 24 h. Plasma proteins were precipitated by addition of 200 ul acetonitrile and the samples were centrifuged at 10,000 G for 10 min. The supernatant was collected for analysis. The supernatant from time zero from both the human and mouse serum was analyzed to establish the retention time of the intact IRDye800CW-AE344 on HPLC-MS on a RSLC Dionex Ultimate 3000 (Thermo) instrument coupled to a Bruker QTOF Impact HD II. The column was an Aeris widepore 3.6 µm C4 column (150 × 4.6 mm, Phenomenex) and the solvent system was solvent A: water containing 0.1% Formic acid; solvent B: acetonitrile containing 0.1% formic acid. Method: 0-1 min 5% solvent B, 1-18min 5%-50% solvent B with a flowrate of 1 mL/min. […] All samples were then run using the settings above and the AUC at the 14 min peak was used to calculate the degradation with 0 h for both murine and human plasma as the reference."}, "[5]": {"assay": "Ex vivo plasma stability, human plasma", "type": "in vitro ADME", "conditions": "37 °C in dark, 2.4 nmol in 1,600 ul plasma, acetonitrile precipitation, HPLC fluorescence detection ex 774/em 798 nm, normalized to 0 h, read-out: intact probe (normalized AUC on HPLC)", "protocol": "as §1"}, "[6]": {"assay": "Biodistribution by organ fluorescence imaging", "type": "in vivo, nude mice", "conditions": "3 nmol, 1 h post injection", "protocol": "Biodistribution was assessed in animals (n=2) receiving 3 nmol IRDye800CW-AE344 and was euthanized after 1 h for organ dissection and imaging (exposure time: 333 ms). Due to renal excretion, the fluorescence signals in the kidneys were out of scale compared to all the other organs."}, "liver and kidneys": {"tested_on": "liver and kidneys", "assay": "Acute toxicity, liver and kidney histology", "type": "in vivo, nude mice", "conditions": "24 h post injection of 12 nmol, 5 animals", "protocol": "Acute toxicity was evaluated on the liver and kidneys from 5 animals 24 h post injection of 12 nmol IRDye800CW-AE344.\nLiver and kidney tissue was formalin fixed and paraffin embedded. Sections of 2-4 um thick were cut and a routine staining panel applied including: H&E, modified sirius, PAS and Masson trichome for both and additional PAS with silver for kidneys and PAS with diastase, iron, reticulin artisan and oxidized orcein for the livers. Livers were immunohistochemically stained, immunohistochemical evaluation on 3 µm thick sections was done using the CK7 antibody from Dako/Agilent, GA619 (clone OV-TL12/30) following the manufacturer's instructions. The staining took place on the Omnis from Agilent utilizing the EnVision Flex+ detection kit (GV800). The primary antibody was diluted using Antibody Diluent (Dako DM830) and were incubated for 20 min. The sections were counterstained with hematoxylin."}, "[7]": {"tested_on": "3D blood-brain barrier (BBB) spheroids", "assay": "Uptake into 3D blood-brain barrier spheroids", "type": "in vitro ADME, human", "conditions": "25 µM, overnight incubation 37 °C/5% CO2, confocal, slice 97 µm inside spheroid, three independent experiments; p = 0.0229", "quoted_text": "All cell lines were incubated at 37 °C/5% CO2.\nBlood-brain-barrier spheroid assembly and uptake assays: Blood-brain barrier (BBB) spheroids were assembled as previously described [54]. Briefly, 50 µL of 1% agarose (w/v) in Milli-Q water is added to each well of low-binding 96 well plates (Thermo Fisher Scientific) and allowed to cool prior to the addition of cells. Confluent astrocytes, pericytes and hCMEC/D3 were lifted with 0.025% trypsin and resuspended in BBB-working media (Vasculife-Mv with VEGF omitted and 2% normal human serum). 1x10^3 of each cell type is added sequentially to give a total volume of 100 µL per well. BBB-working media was added to each well to a final volume of 200 µL per well. Astrocytes were used between passage 2 and 4, pericytes between passage 4 and 6, and hCMEC/D3 between passages 29 and 30. […]\nThe following day, spheroids (10 per treatment condition) were pooled by group into low-binding Eppendorf tubes (1.5 mL, Thermo Fisher Scientific) using 0.1% Triton X-100 treated pipette tips and washed 3 times with sterile PBS. […] The extent of uptake into the spheroids was determined by capturing Z-stacks of each spheroid and measuring the integrated density of a region of interest 50µm from the outer boundary of the spheroid using a slice that corresponds to 97µm inside the spheroid [54]. […]"}, "uPAR-expressing tumors": {"tested_on": "uPAR-expressing tumors", "conditions": "cited from earlier work; for time of maximal TBR: previous probes", "protocol": "Compared to our previous probes, ICG-2Glu-AE105 and CH1055-4Glu-AE105, we improved several features. Importantly, the route of excretion changed from liver to kidneys leading to improved pharmacokinetics with faster excretion. Maximal TBR decreased from 15 h and 96 h of ICG-Glu-Glu-AE105 and CH1055-4Glu-AE105, respectively to 3 h with the current new probe."}, "[8]": {"target": "T1, urokinase-type Plasminogen Activator Receptor (uPAR) (UniProt Q03405 23-305)", "T1 sequence (Q03405 23-305)": "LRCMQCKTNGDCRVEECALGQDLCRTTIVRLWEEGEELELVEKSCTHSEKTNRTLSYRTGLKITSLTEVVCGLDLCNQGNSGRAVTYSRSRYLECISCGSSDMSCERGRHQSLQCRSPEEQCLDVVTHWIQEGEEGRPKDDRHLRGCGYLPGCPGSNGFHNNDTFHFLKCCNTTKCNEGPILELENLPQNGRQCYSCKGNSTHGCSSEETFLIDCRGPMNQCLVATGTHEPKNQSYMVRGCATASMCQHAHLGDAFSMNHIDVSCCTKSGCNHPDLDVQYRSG", "assay": "cell-based or functional assay"}, "[9]": {"target": "T1, urokinase-type Plasminogen Activator …", "assay": "SPR; competition in solution, Biacore 3000: pro-uPA S356A immobilised on a CM5 chip (>5000 RU, mass transport limited); 2 nM uPAR incubated with a 3-fold dilution series of peptide (0.076 nM to 1.5 uM), 300 sec, 20 °C, 50 uL/min; 10 mM HEPES, 150 mM NaCl, 3 mM EDTA, 0.05% P20, pH 7.4", "conditions": "both partners purified"}},
  "note": "Non-standard residues stand in square brackets, D forms with d. Primed or numbered codes have the meaning given here. Cha = N[C@@H](CC1CCCCC1)C(=O)O; IRDye800CW′ = not defined here; AEEA = NCCOCCOCC(=O)O",
  "data": [
    {"molecule": "CC(C)C[C@H](NC(=O)[C@H](Cc1ccc(O)cc1)NC(=O)[C@@H](CCCNC(=N)N)NC(=O)[C@@H](CO)NC(=O)[C@H](Cc1ccccc1)NC(=O)[C@H](CC1CCCCC1)NC(=O)[C@H](CC(=O)O)NC(=O)COCCOCCNC(=O)COCCOCCNC(=O)[C@H](CCC(=O)O)NC(=O)[C@H](CCC(=O)O)NC(=O)CCCCC[N+]1=C(/C=C/C2=C(Oc3ccc(S(=O)(=O)O)cc3)C(=C/C=C3/N(CCCCS(=O)(=O)[O-])c4ccc(S(=O)(=O)O)cc4C3(C)C)/CCC2)C(C)(C)c2cc(S(=O)(=O)O)ccc21)C(=O)N[C@@H](Cc1c[nH]c2ccccc12)C(=O)N[C@@H](CO)C(=O)O", "values": [
      {"measurement": "Stokes shift", "value": 10, "unit": "nm"},
      {"measurement": "emission peak λemis,max", "setting": "[1]", "value": 794, "unit": "nm"},
      {"measurement": "excitation peak λexcit,max", "setting": "[2]", "value": 784, "unit": "nm"},
      {"measurement": "absorption maximum λabs,max", "setting": "[3]", "value": 777, "unit": "nm"}
    ]},
    {"molecule": "NCC(=O)CCC(=O)O", "note": "[5-ALA]", "values": [
      {"measurement": "postoperative residual tumor on histology after guided surgery", "setting": "orthotopic PDX GBM", "value": "clearly showed residual tumor"},
      {"measurement": "low-grade gliomas showing visible fluorescence", "setting": "glioma", "value": "approximately 20%"},
      {"measurement": "frequency of the most common early severe adverse events", "setting": "glioma; hemiparesis, aphasia, convulsions, epidural hematoma, WL group 4 of 131", "value": "11 of 139"},
      {"measurement": "rate of complete resection of the tumor", "setting": "glioma; phase III clinical trial, 5-ALA vs WL surgery (36% with WL)", "value": 65, "unit": "%"}
    ]},
    {"molecule": "CC(C)C[C@H](NC(=O)[C@H](Cc1ccc(O)cc1)NC(=O)[C@@H](CCCNC(=N)N)NC(=O)[C@@H](CO)NC(=O)[C@H](Cc1ccccc1)NC(=O)[C@H](CC1CCCCC1)NC(=O)[C@H](CC(=O)O)NC(=O)COCCOCCNC(=O)COCCOCCNC(=O)[C@H](CCC(=O)O)NC(=O)[C@H](CCC(=O)O)NC(=O)CCCCC[N+]1=C(/C=C/C2=C(Oc3ccc(S(=O)(=O)O)cc3)C(=C/C=C3/N(CCCCS(=O)(=O)O)c4ccc(S(=O)(=O)O)cc4C3(C)C)/CCC2)C(C)(C)c2cc(S(=O)(=O)[O-])ccc21)C(=O)N[C@@H](Cc1c[nH]c2ccccc12)C(=O)N[C@@H](CO)C(=O)O", "note": "[IRDye800CW-AE344]", "values": [
      {"measurement": "remaining at 6 h, 1.5 µM", "setting": "[4]; 6 h", "value": 73, "unit": "%"},
      {"measurement": "remaining at 12 h, 1.5 µM", "setting": "[4]; 12 h", "value": 67, "unit": "%"},
      {"measurement": "remaining at 6 h", "setting": "[5]", "value": 61, "unit": "%"},
      {"measurement": "MFI in liver", "setting": "[6]; n=2, exposure time 333 ms", "value": 88, "unit": "a.u."},
      {"measurement": "MFI in lungs", "setting": "[6]; n=2, exposure time 333 ms", "value": 101, "unit": "a.u."},
      {"measurement": "MFI in normal brain tissue", "setting": "[6]; n=2, exposure time 333 ms", "value": 19, "unit": "a.u."},
      {"measurement": "MFI in skin", "setting": "[6]; n=2, exposure time 333 ms", "value": 99, "unit": "a.u."},
      {"measurement": "MFI in kidneys", "setting": "[6]; n=2, acquired at 40 ms and extrapolated to 333 ms", "value": "1,236 a.u."},
      {"measurement": "kidney histology", "setting": "liver and kidneys", "value": "normal with preserved glomeruli and tubules without atrophy, inflammation, or fibrosis"},
      {"measurement": "liver histology", "setting": "liver and kidneys", "value": "normal with lobular configuration without inflammation, fibrosis, cholestasis or deposits"},
      {"measurement": "fold change in relative fluorescence units (RFU) compared to untreated spheroids", "setting": "[7]", "value": 5.3, "unit": "fold"}
    ]},
    {"molecule": "CH1055-Glu-Glu-Glu-Glu-AE105 [CH1055-4Glu-AE105, previous uPAR probe with NIR-II fluorophore CH1055]", "values": [
      {"measurement": "TBR of previous probes", "setting": "uPAR-expressing tumors", "value": 2.7},
      {"measurement": "time of maximal TBR", "setting": "uPAR-expressing tumors", "value": 96, "unit": "h"}
    ]},
    {"molecule": "ICG-Glu-Glu-AE105 [previous fluorescently labeled uPAR probe with ICG]", "values": [
      {"measurement": "TBR of previous probes", "setting": "uPAR-expressing tumors", "value": 3.5},
      {"measurement": "time of maximal TBR", "setting": "uPAR-expressing tumors", "value": 15, "unit": "h"}
    ]},
    {"molecule": "{IRDye800CW′}-EE[AEEA][AEEA]D[Cha]F[dS][dR]YLWS-OH (also: X3-X4: OEG2 linker between Glu-Glu and AE105)", "note": "[IRDye800CW-AE344]", "values": [
      {"measurement": "normalized tumor-to-background ratio (TBR), NIR imaging of cross sectioned brains with orthotopic GBM in mice, 3 nmol IRDye800CW-AE344 (active), 1 h", "setting": "[8]", "value": 6.6},
      {"measurement": "normalized tumor-to-background ratio (TBR), NIR imaging of orthotopic GBM in mice, 3 nmol IRDye800CW-AE344 blocked by co-administered AE120 (the dimer version of the AE105), 1 h", "setting": "[8]", "value": 4.6},
      {"measurement": "IC50", "setting": "[9]", "value": 20, "unit": "nM"}
    ]},
    {"molecule": "B1", "values": [
      {"measurement": "IC50", "setting": "[9]", "value": 7.8, "unit": "nM"}
    ]}
  ]
}
